Data set [1] addresses MERS-CoV NSP1;human 40S ribosomal subunit (MERS-CoV;Homo sapiens) (UniProt K9N7C7). The data set can be described thus: single-molecule fluorescence (ZMW).
Data set [2] has as its target SARS-CoV-2 NSP1 (ybbR-NSP1) WT;human 40S ribosomal subunit (SARS-CoV-2;Homo sapiens) (UniProt P0DTD1). Kind of data set: single-molecule fluorescence (ZMW).
Data set [3] has as its system Bat-Hp-CoV NSP1;human 40S ribosomal subunit (Bat-Hp-CoV;Homo sapiens). The data set can be described thus: single-molecule fluorescence (ZMW).
Data set [4] concerns the target SARS-CoV NSP1;human 40S ribosomal subunit (SARS-CoV;Homo sapiens) (UniProt P0C6X7). The data set can be described thus: single-molecule fluorescence (ZMW).
The target of data set [5] is SARS-CoV-2 NSP1 (ybbR-NSP1) WT;human 40S ribosomal subunit;eIF1, eIF1A, eIF5, eIF3 lacking 3j, TC-GMPPNP (eIF2, Met-tRNAi) (SARS-CoV-2;Homo sapiens;Homo sapiens) (UniProt P0DTD1). Kind of data set: single-molecule fluorescence (ZMW).
Data set [6] relates to human 40S ribosomal subunit;eIF1, eIF1A, eIF5, TC-GMPPNP (eIF2, Met-tRNAi) (Homo sapiens;Homo sapiens). Kind of data set: single-molecule fluorescence (ZMW).
Data set [7] concerns the target SARS-CoV-2 NSP1 (ybbR-NSP1) WT;human 40S ribosomal subunit;eIF1, eIF1A, eIF5, TC-GMPPNP (eIF2, Met-tRNAi) (SARS-CoV-2;Homo sapiens;Homo sapiens) (UniProt P0DTD1). Kind of data set: single-molecule fluorescence (ZMW).
The target in data set [8] is human 40S ribosomal subunit with the ybbR tag on RACK1, biotinylated or Cy5-labelled (human) (UniProt P63244).
For data set [9] the target is unchanged. This is another data set of the same source.
Data set [10] concerns the target eIF1–40S(biotin) subunit complex (human) (UniProt P41567).
UniProt P41567, sequence (P41567 whole entry, looked up, tested part not stated, one chain of several): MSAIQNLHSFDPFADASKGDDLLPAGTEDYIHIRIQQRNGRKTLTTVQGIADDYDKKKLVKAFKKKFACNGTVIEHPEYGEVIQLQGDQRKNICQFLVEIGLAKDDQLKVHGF
The target in data set [11] is human 40S ribosomal subunit with the ybbR tag on RACK1, biotinylated or Cy5-labelled (human) (UniProt P63244). This is another data set of the same source.
Data set [12] deals with human 80S ribosome assembled on the CrPV IRES from 40S-ybbR-Cy3 and 60S-ybbR-Cy5 subunits (human (endogenous in HEK293T)) (UniProt P62841).
Data set [13] has as its target human 40S ribosomal subunit with the ybbR tag on uS19, Cy3-labelled (human (endogenous in HEK293T)) (UniProt P62841).
Data set [14] deals with human 40S ribosomal subunit with the ybbR tag on RACK1, biotinylated or Cy5-labelled (human) (UniProt P63244). The source holds these as a separate data set.
The target is the same in data set [15]. The source holds these as a separate data set.

Where “and” joins values, the source holds several entries; their conditions need not be identical. Equal entries are not always repeated. Where two headings read alike, the source gives them in different places.

For “GGCCAGCCCCCUGAUGGGGGCGACACUCCACCAUGAAUCACUCCCCUGUGAGGAACUACUGUCUUCACGCAGAAAGCGUCUAGCCAUGGCGUUAGUAUGAGUGUCGUGCAGCCUCCAGGACCCCCCCUCCCGGGAGAGCCAUAGUGGUCUGCGGAACCGGUGAGUACACCGGAAUUGCCAGGACGACCGGGUCCUUUCUUGGAUAAACCCGCUCAAUGCCUGGAGAUUUGGGCGUGCCCCCGCAAGACUGCUAGCCGAGUAGUGUUGGGUCGCGAAAGGCCUUGUGGUACUGCCUGAUAGGGUGCUUGCGAGUGCCCCGGGAGGUCUCGUAGACCGUGCACCAUG [HCV+0]”, in data set [1], the binding signal (% complexes bound) was determined as 11. Besides, the values for the Kd in data set [2], in data set [3] and in [4] were < 1 nM, < 1 nM and < 2 nM, respectively. For the same substance, in data set [2], the binding signal (% 40S events with NSP1) came out at 57.
In data set [2], “GGCCAGCCCCCUGAUGGGGGCGACACUCCACCAUGAAUCACUCCCCUGUGAGGAACUACUGUCUUCACGCAGAAAGCGUCUAGCCAUGGCGUUAGUAUGAGUGUCGUGCAGCCUCCAGGACCCCCCCUCCCGGGAGAGCCAUAGUGGUCUGCGGAACCGGUGAGUACACCGGAAUUGCCAGGACGACCGGGUCCUUUCUUGGAUAAACCCGCUCAAUGCCUGGAGAUUUGGGCGUGCCCCCGCAAGACUGCUAGCCGAGUAGUGUUGGGUCGCGAAAGGCCUUGUGGUACUGCCUGAUAGGGUGCUUGCGAGUGCCCCGGGAGGUCUCGUAGACCGUGCACCAUGAGCACG [HCV+6]” gave a binding signal (% complexes bound) of 81.
As for “GGCCAGCCCCCUGAUGGGGGCGACACUCCACCAUGAAUCACUCCCCUGUGAGGAACUACUGUCUUCACGCAGAAAGCGUCUAGCCAUGGCGUUAGUAUGAGUGUCGUGCAGCCUCCAGGACCCCCCCUCCCGGGAGAGCCAUAGUGGUCUGCGGAACCGGUGAGUACACCGGAAUUGCCAGGACGACCGGGUCCUUUCUUGGAUAAACCCGCUCAAUGCCUGGAGAUUUGGGCGUGCCCCCGCAAGACUGCUAGCCGAGUAGUGUUGGGUCGCGAAAGGCCUUGUGGUACUGCCUGAUAGGGUGCUUGCGAGUGCCCCGGGAGGUCUCGUAGACCGUGCACCAUGAGCACGAAUCCU [HCV+12]”, the binding signal in data set [5] was 0.013 s-1 (kobs); in data set [2], 0.044 s-1 (kobs).
Consider “GGCCAGCCCCCUGAUGGGGGCGACACUCCACCAUGAAUCACUCCCCUGUGAGGAACUACUGUCUUCACGCAGAAAGCGUCUAGCCAUGGCGUUAGUAUGAGUGUCGUGCAGCCUCCAGGACCCCCCCUCCCGGGAGAGCCAUAGUGGUCUGCGGAACCGGUGAGUACACCGGAAUUGCCAGGACGACCGGGUCCUUUCUUGGAUAAACCCGCUCAAUGCCUGGAGAUUUGGGCGUGCCCCCGCAAGACUGCUAGCCGAGUAGUGUUGGGUCGCGAAAGGCCUUGUGGUACUGCCUGAUAGGGUGCUUGCGAGUGCCCCGGGAGGUCUCGUAGACCGUGCACCAUGAGCACGAAUCCUAAACCUCAAAGAAAAACCGCCAGAACCAUGGAAGAC [HCV+48]”, for which, in [2], the Kd is > 2000 nM and the binding signal (% 40S events with NSP1) is 60.
In turn, “GGUCUCUCUCUCUCUCUCUAUGUUCAAAUAAUCUCUCUCUCUCUCUCUCUCUCUCUCUCUCUC [M+41]” came in with a binding signal (% complexes bound) in data set [2] of 16. Besides, the figures for the binding signal in data set [6] and in data set [7] were 0.0038 s-1 (koff) and 4 s-1 (koff), respectively.
On to “SARS-CoV NSP1 with an N-terminal ybbR tag, Cy3-labelled (from UniProt P0C6X7 1-180) (natural protein)”, for which, in data set [8], the Kd was < 2 nM, the fraction of IRES–40S complexes bound at least once by NSP1 (≥∼5 s) was found to be 62% and the koff was < 0.006 s⁻¹.
For “SARS-CoV-2 NSP1 with an N-terminal ybbR tag, fluorescently labelled (from UniProt P0DTD1 1-180) (natural protein)”, in data set [9], the Kd is > 3000 nM and the koff was 0.25 s⁻¹. In addition, in data set [10], the Kd was < 10 nM, the koff came to 0.0042 s⁻¹ and the kon was determined as 300000 M⁻¹ s⁻¹. The substance further yielded a kon in data set [11] of 3e+06 to 4e+06 M⁻¹ s⁻¹. Besides, the fraction of traces with an NSP1 binding event in [12] was 30%. For the same substance, in data set [13], the time NSP1 remained bound after association was found to be 120 s. In addition, in data set [14], the fraction of mRNA–40S complexes bound at least once by NSP1 (≥∼5 s) worked out at 16% and the kobs (apparent association rate) was < 0.002 s⁻¹. In addition, in [15], the dissociation constant Kd is < 1 nM; the fraction of IRES–40S complexes bound at least once by NSP1 (≥∼5 s) is 77% and 60%; the koff was < 0.0043 s⁻¹.

The values are drawn from publication PMC8017934.
